B1: Coronin-1A (Mus musculus), O89053 (parent)
chain: MSRQVVRSSKFRHVFGQPAKADQCYEDVRVSQTTWDSGFCAVNPKFMALICEASGGGAFLVLPLGKTGRVDKNVPLVCGHTAPVLDIAWCPHNDNVIASGSEDCTVMVWEIPDGGLVLPLREPVITLEGHTKRVGIVAWHPTAQNVLLSAGCDNVILVWDVGTGAAVLTLGPDVHPDTIYSVDWSRDGALICTSCRDKRVRVIEPRKGTVVAEKDRPHEGTRPVHAVFVSEGKILTTGFSRMSERQVALWDTKHLEEPLSLQELDTSSGVLLPFFDPDTNIVYLCGKGDSSIRYFEITSEAPFLHYLSMFSSKESQRGMGYMPKRGLEVNKCEIARFYKLHERKCEPIAMTVPRKSDLFQEDLYPPTAGPDPALTAEEWLGGRDAGPLLISLKDGYVPPKSRELRVNRGLDSARRRATPEPSGTPSSDTVSRLEEDVRNLNAIVQKLQERLDRLEETVQAK

Variants of: B1
Conditions: with gnas2_human GNAS

Variant | effect of a mutation on the interaction
T418A | decreasing interaction
T418A;T424A | disrupting interaction
T424A | decreasing interaction

Variants of: B1
Conditions: with gnas2_human GNAS
Remark: another data set of the same source

Variant | effect of a mutation on the interaction
T418E;T424E | disrupting interaction

From IntAct's records for PubMed 26823173
